Measurements as given in US20070042946A1 (NATIONAL RESEARCH COUNCIL OF CANADA, published 2007).

Legend:
human α-thrombin [1] = biological target: T1, human α-thrombin (human, UniProt P00734 328-622); assay: cell-based or functional assay
human α-thrombin [2] = biological target: T1, human α-thrombin; assay: amidolytic assay, Tos-Gly-Pro-Arg-pNA hydrolysis by human α-thrombin, 25° C.
Protocol: Kinetics of thrombin-catalyzed hydrolysis of the chromogenic substrate Tos-Gly-Pro-Arg-p-nitroanilide were followed by absorbance at 405 nm on a Spectramax plate reader thermostated at either 25° C. or 37° C. according to the method of Maragnore et al (supra). The concentrations of Tos-Gly-Pro-Arg-p-nitroanilide ranged from 2 to 400 μM. […] The KM and Vₘₐₓ values were calculated accordingly and kcat values were determined by dividing Vₘₐₓ by the enzyme (thrombin) concentration. The inhibition assays were performed in the clotting buffer with a certain fixed concentration of α-thrombin (˜0.3 nM) such that linear progress curves were achieved within at least 15 min in the absence of the inhibition. The total volume of the solution was fixed at 200 μl. Reactions were initiated by addition of the chromogenic substrate to the wells containing thrombin and a certain concentration of the peptide inhibitors premixed for less than 2 min. Alternatively, the substrate was first mixed with the peptide inhibitor and the total volume was adjusted to 120 μL using the clotting buffer. Eighty microliters of human α-thrombin in the clotting buffer (˜0.3 nM final concentration) was added to initiate the reaction. The concentration of the peptides ranged from 0.5 nM to 10 μM. Kinetics data from initial rate experiments were used to construct Lineweaver-Burke plot; i.e. the relationship of (substrate concentration)⁻¹ versus (initial velocity)⁻¹ which. were analysed by linear regression with MicroCal Origin 4.1 program (MicroCal, MD) or using the GraphPad Prism software. The Kᵢ values of the inhibitors were determined using the equation: Kᵢ=[I]/{(SL₀/SL₁)−1}, where [0098] [I] is the inhibitor concentration, [0099] SL₀ is the slope of the reaction in the absence of inhibitors, and [0100] SL₁ is the slope of the reaction in the presence of the inhibitor. Alternatively, Dixon plots of inverse velocity versus the inhibitor concentrations were generated with the Sigmaplot™ software. Every Dixon plot contained an array of data corresponding to different substrate concentrations and the Kᵢ values were determined from the intersections. Following Peptide Cleavage by HPLC

bovine α-thrombin = bovine α-thrombin (bovine, UniProt P00735 318-625); assay: cell-based or functional assay
human α-thrombin [3] = biological target: T1, human α-thrombin; assay: amidolytic assay, Tos-Gly-Pro-Arg-pNA hydrolysis by human α-thrombin, 25° C.; synthetic peptide
Protocol: (§1) Kinetics of thrombin-catalyzed hydrolysis of the chromogenic substrate Tos-Gly-Pro-Arg-p-nitroanilide were followed by absorbance at 405 nm on a Spectramax plate reader thermostated at either 25° C. or 37° C. according to the method of Maragnore et al (supra). The concentrations of Tos-Gly-Pro-Arg-p-nitroanilide ranged from 2 to 400 μM. […] The KM and Vₘₐₓ values were calculated accordingly and kcat values were determined by dividing Vₘₐₓ by the enzyme (thrombin) concentration. The inhibition assays were performed in the clotting buffer with a certain fixed concentration of α-thrombin (˜0.3 nM) such that linear progress curves were achieved within at least 15 min in the absence of the inhibition. The total volume of the solution was fixed at 200 μl. […] Kinetics data from initial rate experiments were used to construct Lineweaver-Burke plot; i.e. the relationship of (substrate concentration)⁻¹ versus (initial velocity)⁻¹ which. were analysed by linear regression with MicroCal Origin 4.1 program (MicroCal, MD) or using the GraphPad Prism software. The Kᵢ values of the inhibitors were determined using the equation: Kᵢ=[I]/{(SL₀/SL₁)−1}, where [0098] […] Every Dixon plot contained an array of data corresponding to different substrate concentrations and the Kᵢ values were determined from the intersections. […]

human α-thrombin [4] = biological target: T1, human α-thrombin; assay: amidolytic assay, Tos-Gly-Pro-Arg-pNA hydrolysis by human α-thrombin, 25° C.; recombinant peptide
Protocol: as §1

Binder	IC50 (DCT), clotting assay, 37° C. (human α-thrombin [1]) [nM]	Ki (human α-thrombin [2]) [nM]	further results
FEPRPQDHNDGDFEEIPEEYLQ [FE22-D]	> 125		
GSAVPRPQIHNDGDFEEIPEEYLQ [GS-AV22-I]	33	41	
GSIQPRPQIHNDGDFEEIPEEYLQ [GS-IQ22-I]	10	> 400	
FDPRPQHHNDGDFEEIPEEYLQ [FD22-H]	70		
FDPRPQKHNDGDFEEIPEEYLQ [FD22-K]	60		
FHPRPQSHNDGDFEEIPEEYLQ [FH22]	> 150		
FNPRPQSHNDGDFEEIPEEYLQ (Tested as recombinant peptide (FN22^(a), released by CNBr from the MFH fusion) and as synthetic peptide; also called FN22^(a) (recombinant preparation)) [FN22]			IC50, clotting assay; recombinant peptide (bovine α-thrombin): 289 nM; IC50 (DCT), clotting assay, 37° C.; recombinant peptide FN22^(a) (human α-thrombin [1]): 150 nM; IC50 (DCT), clotting assay, 37° C.; synthetic peptide (human α-thrombin [1]): 67 nM; Ki (human α-thrombin [3]): 80 nM; Ki (human α-thrombin [4]): 100 nM
FDPRPQSHNDGDFEEIPEEYLQ (Tested as recombinant peptide (FD22^(a), released by CNBr from the MFH fusion) and as synthetic peptide; also called FD22^(a) (recombinant preparation)) [FD22]			IC50 (DCT), clotting assay, 37° C.; recombinant peptide FD22^(a) (human α-thrombin [1]): 50 nM; IC50 (DCT), clotting assay, 37° C.; synthetic peptide (human α-thrombin [1]): 45 nM; Ki (human α-thrombin [3]): 48 nM; Ki (human α-thrombin [4]): 55 nM
FNPRPQIHNDGDFEEIPEEYLQ [FN22-I]	45	360	
FDPRPQDHNDGDFEEIPEEYLQ (Synthetic) [FD22-D]	53	58	
LDPRPQSHNDGDFEEIPEEYLQ (Synthetic) [LD22]	228	260	
FQPRPQMHNDGDFEEIPEEYLQ [FQ22-M]	11	64	
IQPRPQIHNDGDFEEIPEEYLQ [IQ22-I]	39	49	
WDPRPQRHNDGDFEEIPEEYLQ (Synthetic) [WD22-R]	22	17	
FDPRPQRHNDGDFEEIPEEYLQ (Synthetic) [FD22-R]	32	45	
WDPRPQSRNDGDYEPIPEEYLQ [WD22-SR-YP]	32		
FEPRPQSHNDGDFEEIPEEYLQ [FE22]	80		
WDPRPQSRNDGDFEPIPEEYLQ [WD22-SR-P]	53		
